Test results published in patent US20240343803A1 (SHANDONG SIMCERE BIOPHARMACEUTICAL, published 2024).
Substitutions are numbered along the chain they refer to.

T1: cynomolgus monkey PVRIG on FlpinCHO-cyno PVRIG cells (cynomolgus monkey, UniProt A0A2K5WVV8 41-322)
T1 construct: whole, on cells; also called FlpinCHO-cynomolgus monkey PVRIG
T1 sequence: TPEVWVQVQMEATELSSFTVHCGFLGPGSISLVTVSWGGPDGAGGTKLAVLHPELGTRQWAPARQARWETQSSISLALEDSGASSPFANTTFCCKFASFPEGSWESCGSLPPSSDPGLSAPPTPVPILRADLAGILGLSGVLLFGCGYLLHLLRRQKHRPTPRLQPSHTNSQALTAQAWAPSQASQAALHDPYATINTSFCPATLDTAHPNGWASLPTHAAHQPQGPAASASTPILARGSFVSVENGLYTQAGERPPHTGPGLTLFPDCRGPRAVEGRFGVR

T2: human PVRIG-his (AcroBiosystems, Cat NO. PVG-H52H4) (human, UniProt Q6DKI7 41-171, limits assumed)
T2 construct: treated as the same protein; also called human PVRIG-His protein; Human PVRIG-His, Acro C227P1-9ARF1-T4
T2 sequence (looked up): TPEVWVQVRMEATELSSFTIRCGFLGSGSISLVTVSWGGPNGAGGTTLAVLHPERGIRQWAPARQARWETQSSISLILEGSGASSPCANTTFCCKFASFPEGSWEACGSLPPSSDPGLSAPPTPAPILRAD

T3: cynomolgus monkey PVRIG (Novoprotein, Cat NO. C09B) (cynomolgus monkey, UniProt A0A2K5WVV8 41-171)
T3 construct: bought reagent; also called cynomolgus monkey PVRIG recombinant protein
T3 sequence: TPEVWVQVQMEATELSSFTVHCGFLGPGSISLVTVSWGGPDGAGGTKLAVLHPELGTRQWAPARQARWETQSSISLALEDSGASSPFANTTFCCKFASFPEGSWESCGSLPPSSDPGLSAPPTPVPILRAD

T4: full-length human TIGIT on CHO-K1 cells (CHO-K1 human TIGIT) (human, UniProt Q495A1 22-244)
T4 construct: NCBI XP_024309156.1; entry includes the signal peptide; also called high expression strain 1D2; medium expression strain 2D10
T4 sequence: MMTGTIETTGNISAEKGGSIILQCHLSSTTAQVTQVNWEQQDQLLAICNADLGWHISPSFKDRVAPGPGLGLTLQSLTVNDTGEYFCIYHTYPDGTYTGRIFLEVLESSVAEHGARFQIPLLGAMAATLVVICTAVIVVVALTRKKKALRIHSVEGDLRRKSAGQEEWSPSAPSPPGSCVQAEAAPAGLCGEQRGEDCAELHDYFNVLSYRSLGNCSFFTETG

T5: TIGIT on human PBMCs stimulated by SEA (human, UniProt Q495A1 22-244)
T5 construct: whole, on cells
T5 sequence (looked up): T4 sequence

B1: COM701-hIgG1 (antibody, V domains shown)
VH: QVQLVQSGAEVKKPGASVKVSCKASGYTFTDYNINWVRQAPGQGLEWMGYIYPYIGGSGYAQKFQGRVTMTRDTSTSTVYMELSSLRSEDTAVYYCAREDKTARNAMDYWGQGTLVTVSS
VL: DIQMTQSPSSLSASVGDRVTITCRVSENIYSNLAWYQQKPGKAPKLLIYEATNLAEGVPSRFSGSGSGTDFTLTISSLQPEDFATYYCQHFWGTPYTFGQGTKLEIK
notes: human IgG1 format by its name
B2: TIGIT-002-H4L3 (antibody, V domains shown)
VH: EVQLQESGPGLVKPSETLSLTCAVSGYSITSDSWNWIRQPPGKKLEYIGYISYSGNTYYNPSLKSRVTISRDTSKNQFSLKLSSVTAADTAVYYCARLDFSNYGGAVDYWGQGTTVTVSS
VL: DIVMTQSPDSLAVSLGERATINCKASQNVRTAVAWYQQKPGQSPKLMIYSASYRYTGVPDRFSGSGSGTDFTLTISSLQAEDVAVYYCQQYYTTPWTFGGGTKVEIK
notes: humanized; 002.VH4 with 002.VL3
B3: TIGIT-005-H2L1d (antibody, V domains shown)
VH: EVQLVQSGAEVKKPGASVKVSCKASGYAFTNYLIEWVRQAPGQRLEWMGVINPGSGGTNYKEKFKGRVTITADKSSSTAYMELSSLRSEDTAVYYCARGEYFFFDYWGQGTTVTVSS
VL: B2 VL with N28H, R30S, T31N, Q38H, M47L, Y91H, T93N, W96H
notes: humanized; 005.VH2 with 005.VL1d

Assays:
[1] = biological target: T1, cynomolgus monkey PVRIG on …; assay: FACS, FlpinCHO-cyno PVRIG cells
[2] = biological target: T2, human PVRIG-his (AcroBiosystems, Cat …); assay: ELISA, coated human PVRIG-his
Procedure: (§1) The ELISA plate was pre-coated with 100 μL/well of 0.5 μg/mL human PVRIG-his (AcroBiosystems, Cat NO. PVG-H52H4) or cynomolgus monkey PVRIG (Novoprotein, Cat NO. C09B). […] A HRP substrate, TMB (Thermo, Cat NO. 34029) was added into wells after washing the plate again for color development. After adding a termination solution to terminate the reaction, the absorbance value was read by a microplate reader (MD i3×). An antibody binding curve was drawn with concentration of antibodies as the abscissa and the corresponding OD value as the ordinate. The EC50 value was calculated by using a Four Parameter Logistic Fit (GraphPadPrism9). The smaller the EC50 value, the stronger the ability of the antibodies binds to human or cynomolgus monkey PVRIG. The positive control antibodies are COM701-hIgG1 (Patent No.:US20180244774A1), COM701-hIgG4 (patent No.: US20180244774A1) and SRF813-hIgG1 (Patent No.:US20200040081A1); and the negative control antibodies are anti-HA HcAb-hIgG1 (Chengdu NB Biolab, Cat NO. NBR022), anti-CD38 HcAb-hIgG1 (in-house) and anti-Fluorescein-hIgG1 (in house).

[3] = biological target: T3, cynomolgus monkey PVRIG (Novoprotein, …); assay: ELISA, coated cynomolgus monkey PVRIG
Procedure: as §1

[4] = biological target: T1, cynomolgus monkey PVRIG on …; assay: FACS, FlpinCHO cynomolgus monkey PVRIG cells
Procedure: CHO-K1 stable cells ([…]-61™) transfected with human or cynomolgus monkey PVRIG high expression plasmids were named FlpinCHO-hPVRIG and FlpinCHO-cynoPVRIG. […] After discarding the cell culture medium, the cells were rinsed with PBS and digested for 8-10 minutes by adding 1 mL Versene (Gibico, 15040-066). The Ham's F12 (Gibico, 21127-022) complete medium containing 10% FBS was then added to terminate the digestion and acquire cell suspension. After cell counting, an appropriate amount of cell suspension was centrifuged at 350×g to remove the supernatant, washed twice with PBS, stained with Zombie violet (Biolegend, 423114) and incubated at room temperature for 20 minutes. After incubation, the cells were added with staining buffer (2% FBS+PBS) to stop staining, centrifuged at 350×g to remove the supernatant, washed twice and resuspended with staining buffer to a density of 2×10⁶ cells/mL. The cells were plated into a 96-well plate (50 μL of cell suspension per well) for further use. The antibodies were diluted from the highest concentration of 46 nM (two-fold concentration) with staining buffer by 3.3-fold serial dilution. The diluted antibodies were added to the well containing 50 μL of cell suspension. […] After staining, the cells were washed twice with staining buffer, finally resuspended with 200 μL staining buffer and analyzed by flow cytometry (BD, Canto II).

[5] = biological target: T1, cynomolgus monkey PVRIG on …; assay: FACS, FlpinCHO-cyno PVRIG cells; remark: listed apart in the source
Procedure: After discarding the cell culture medium, the cells were rinsed with PBS and digested for 8-10 minutes by adding 1 mL Versene (Gibico, 15040-066). The Ham's F12 (Gibico, 21127-022) complete medium containing 10% FBS was then added to terminate the digestion and acquire cell suspension. After counting with a cell counter (Beckman Coulter, Vi-CELL), an appropriate amount of cell suspension was centrifuged at 350×g to remove the supernatant, washed twice with PBS, stained with Zombie violet (Biolegend, 423114) and incubated at room temperature for 20 minutes. After incubation, the cells were added with staining buffer (2% FBS+PBS) to stop staining, centrifuged at 350×g to remove the supernatant, washed twice and resuspended with staining buffer to a density of 2×10⁶ cells/mL. The cells were plated into a 96-well plate (50 μL of cell suspension per well) for further use. The antibodies were diluted from the highest concentration of 46 nM (two-fold concentration) with staining buffer by 3.3-fold serial dilution. The diluted antibodies were added to the well containing 50 μL of cell suspension. The plate was placed on a microplate shaker at 400 rpm for 1 minute to fully mix the antibodies and cells, and then incubated at 4° C. for 30 minutes. After the incubation, the cells were washed twice with staining buffer (200 μL per well) and centrifuged at 350×g for 5 minutes to discard the supernatant. The PE goat anti-human IgG Fc antibody (ebioscience, 12-4998-82) was diluted 250 times with staining buffer, added into the washed wells (100 μL per well), mixed well, and stained at 4° C. for 30 minutes. After staining, the cells were washed twice with staining buffer, finally resuspended with 200 μL staining buffer and analyzed by flow cytometry (BD, Canto II). […] An antibody binding curve was drawn with concentration of antibodies as the abscissa and the corresponding Mean Fluorescence Intensity (MFI) as the ordinate. The AUC value of the curve was calculated by using a Four Parameter Logistic Fit (GraphPadPrism9). […]

[6] = biological target: T4, full-length human TIGIT on CHO-K1 cells …; assay: competition FACS; blocked: Bio-CD155-His binding to CHO-K1 human TIGIT cells
Procedure: The collected cells were washed once with PBS (Hyclone, SH30256), resuspended to 2×10⁵/40 μL with 1% BSA-PBS. The antibodies were diluted to 210 nM with 1% BSA-PBS (diluted by 3-fold serial dilution for 12 concentration points). […] The 40 μL cells were then mixed with 40 μL diluted antibodies and 40 μL diluted Bio-CD155-His, and then incubated at 4° C. for 60 minutes. The cells were washed twice with PBS, resuspended with APC labeled streptavidin (dilution ratio 1:1700, Biolegend, 405243), 100 μL/well, and incubated at 4° C. for 40 minutes. The cell samples were washed twice with PBS, resuspended with 1% BSA-PBS (100 μL/well) and then analyzed by flow cytometry (BD, Canto II).

[7] = biological target: T5, TIGIT on human PBMCs stimulated by SEA; assay: FACS, SEA-stimulated human PBMCs
Procedure: The fresh human PBMCs (AllCells, PB004-C) were adjusted to a density of 5×10⁵/mL, added with SEA (Toxin Technology, Inc., AT101) to 100 ng/mL, and cultured at 37° C. with 5% CO₂ for 3 days. The cells were collected 3 days later, washed once with PBS (Hyclone, SH30256), added with Fc Block (BD, 564220) and then incubated at 4° C. for 10 minutes. After washing twice with PBS, the PBMCs were resuspended to 2×10⁵/50 μL with 1% BSA-PBS. The humanized antibodies were diluted to 80 nM with 1% BSA-PBS (diluted by 3-fold serial dilution for 12 concentration points). The 50 μL cells were then mixed with 50 μL diluted antibodies, and then incubated at 4° C. for 60 minutes. […] After washing twice with PBS, the cell samples were resuspended with 1% BSA-PBS, 100 µL/well, and then analyzed by flow cytometry (BD, Canto II).

[8] = biological target: T4, full-length human TIGIT on CHO-K1 cells …; assay: FACS, CHO-K1 human TIGIT low expression strain
Procedure: (§2) The collected cells were washed once with PBS (Hyclone, Cat NO. SH30256), resuspended to 2×10⁵/50 μL with 1% BSA-PBS. The antibodies were diluted to 80 nM with 1% BSA-PBS (diluted by 3-fold serial dilution for 12 concentration points). The 50 μL cells were then mixed with 50 μL diluted antibodies, and then incubated at 4° C. for 60 minutes. […] After washing twice with PBS, the cell samples were resuspended with 1% BSA-PBS, 100 μL/well and then analyzed by flow cytometry (BD, Canto II).

[9] = biological target: T4, full-length human TIGIT on CHO-K1 cells …; assay: FACS, CHO-K1 human TIGIT medium expression strain
Procedure: as §2

[10] = biological target: T4, full-length human TIGIT on CHO-K1 cells …; assay: FACS, CHO-K1 human TIGIT high expression strain
Procedure: as §2

[11] = biological target: T6, full-length cynomolgus monkey TIGIT on CHO-K1 cells (CHO-K1 cynomolgus monkey TIGIT) (cynomolgus monkey); assay: FACS, CHO-K1 cynomolgus monkey TIGIT cells
T6 construct: NCBI XP_015300911.1; also called cynomolgus monkey TIGIT cells
Procedure: as §2

T6 sequence (chain, as listed by the source limits assumed): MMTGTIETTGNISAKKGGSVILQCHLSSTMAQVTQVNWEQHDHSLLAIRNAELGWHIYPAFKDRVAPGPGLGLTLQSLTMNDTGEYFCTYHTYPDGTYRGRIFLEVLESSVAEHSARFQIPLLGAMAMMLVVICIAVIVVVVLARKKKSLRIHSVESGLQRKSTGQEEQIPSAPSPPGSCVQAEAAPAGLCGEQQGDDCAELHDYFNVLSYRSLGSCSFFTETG

Row | Binder | EC50 (read off the curve) [1] [nM] | EC50 (read off the curve) [2] [nM] | EC50 (read off the curve) [3] [nM] | EC50 (read off the curve) [4] [nM] | EC50 (read off the curve) [5] [nM] | IC50 (read off the curve) [6] [nM] | EC50 (read off the curve) [7] [nM] | EC50 (read off the curve) [8] [nM] | EC50 (read off the curve) [9] [nM] | EC50 (read off the curve) [10] [nM] | EC50 (read off the curve) [11] [nM]
1 | B1 | ~0.6 | ~0.06 | ~0.04 | ~0.5 | ~0.5 |  |  |  |  |  | 
2 | B2 |  |  |  |  |  | ~0.09 | ~0.06 | ~0.1 | ~0.1 | ~0.2 | ~0.4
3 | B3 |  |  |  |  |  | ~0.09 | ~0.09 | ~0.09 | ~0.1 | ~0.2 | ~0.4
